# Measured values taken from article PMC4451147.
# What was measured:
# [1] = biological target: Tubulin purified from lamb brains (sheep (purified from lamb brains)); experiment: ITC; stathmin (syringe, 50-200 uM) injected into tubulin (cell, 5-20 uM); no MTA; 37°C; 20 mM NaPi, 4 mM MgCl2, 0.1 mM GTP, pH 6.5; one set of sites model; apparent constants
# [2] = biological target: Tubulin purified from lamb brains (sheep (purified from lamb brains)); experiment: ITC; stathmin (syringe) injected into tubulin (cell); vinflunine (10 uM) in cell and syringe; 37°C; 20 mM NaPi, 4 mM MgCl2, 0.1 mM GTP, pH 6.5; one set of sites model; apparent constants
binder,measurement,setting,value
Human recombinant stathmin (natural protein) MASSDIQVKELEKRASGQAFELILSPRSKESVPEFPLSPPKKKDLSLEEIQKKLEAAEERRKSHEAEVLKQLAEKREHEKEVLQKAIEENNNFSKMAEEKLTHKMEANKENREAQMAAKLERLREKDKHIEEVRKNKESKDPADETEAD,Ka,[1],2.7e+06 M⁻¹
same,dH (kcal/mole of stathmin),[1],-7.5
same,Ka,[2],7.8e+06 M⁻¹
same,dH (kcal/mole of stathmin),[2],-30
